What was measured:
[1] = biological target: recombinant PKC (Promega)
[2] = biological target: T1, full length recombinant human ERα protein (Invitrogen), P03372
T1 chain: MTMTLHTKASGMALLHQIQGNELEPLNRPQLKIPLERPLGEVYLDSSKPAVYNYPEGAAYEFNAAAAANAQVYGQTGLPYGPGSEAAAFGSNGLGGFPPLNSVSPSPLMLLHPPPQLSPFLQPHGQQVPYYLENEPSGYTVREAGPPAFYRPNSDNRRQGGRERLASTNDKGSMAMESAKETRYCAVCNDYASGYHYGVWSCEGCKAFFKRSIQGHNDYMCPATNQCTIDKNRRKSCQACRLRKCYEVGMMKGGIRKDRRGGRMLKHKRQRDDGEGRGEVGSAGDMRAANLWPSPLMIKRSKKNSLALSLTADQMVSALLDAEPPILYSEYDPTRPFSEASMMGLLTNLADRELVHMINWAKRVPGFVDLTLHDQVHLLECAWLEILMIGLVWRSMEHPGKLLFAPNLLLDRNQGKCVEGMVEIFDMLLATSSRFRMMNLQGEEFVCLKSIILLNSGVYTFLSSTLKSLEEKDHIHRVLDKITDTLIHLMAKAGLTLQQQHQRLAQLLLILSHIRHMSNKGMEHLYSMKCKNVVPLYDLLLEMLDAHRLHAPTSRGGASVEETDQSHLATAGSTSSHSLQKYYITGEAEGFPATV

[3] = biological target: T2, GST-recombinant human FoXO3a, O43524
T2 chain: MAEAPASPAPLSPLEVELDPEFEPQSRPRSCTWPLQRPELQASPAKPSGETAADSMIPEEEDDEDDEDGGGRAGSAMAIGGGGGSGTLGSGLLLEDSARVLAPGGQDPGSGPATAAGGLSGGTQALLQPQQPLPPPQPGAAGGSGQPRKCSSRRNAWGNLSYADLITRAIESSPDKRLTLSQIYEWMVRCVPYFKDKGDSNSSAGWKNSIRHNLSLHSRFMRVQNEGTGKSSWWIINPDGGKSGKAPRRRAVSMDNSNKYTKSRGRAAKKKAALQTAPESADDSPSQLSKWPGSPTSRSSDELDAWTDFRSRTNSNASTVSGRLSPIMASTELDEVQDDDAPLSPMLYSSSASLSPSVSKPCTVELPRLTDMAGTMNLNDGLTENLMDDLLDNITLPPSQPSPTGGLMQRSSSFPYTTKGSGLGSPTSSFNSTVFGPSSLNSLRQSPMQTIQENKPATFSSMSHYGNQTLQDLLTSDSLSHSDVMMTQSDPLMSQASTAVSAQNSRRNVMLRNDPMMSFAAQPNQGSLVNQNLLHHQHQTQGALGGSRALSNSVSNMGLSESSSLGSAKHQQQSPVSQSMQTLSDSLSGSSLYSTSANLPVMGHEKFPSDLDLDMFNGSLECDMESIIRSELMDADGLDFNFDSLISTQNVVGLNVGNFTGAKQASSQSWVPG

B1: recombinant LMTK3 kinase domain (protein)
chain: LSYLQEIGSGWFGKVILGEIFSDYTPAQVVVKELRASAGPLEQRKFISEAQPYRSLQHPNVLQCLGLCVETLPFLLIMEFCQLGDLKRYLRAQRPPEGLSPELPPRDLRTLQRMGLEIARGLAHLHSHNYVHSDLALRNCLLTSDLTVRIGDYGLAHSNYKEDYYLTPERLWIPLRWAAPELLGELHGTFMVVDQSRESNIWSLGVTLWELFEFGAQPYRHLSDEEVLAFVVRQQHVKLARPRLKLPYADYWYDILQSCWRPPAQRPSASDLQLQLTYL
in vitro kinase assay, PKC phosphorylation of histone [1]: LMTK3 inhibits the ability of PKC to phosphorylate histone
in vitro phosphorylation followed by in vitro proteasome degradation assay [2]: phosphorylation of ERα by LMTK3 (FIG. 20d) rescued ERα from in vitro proteasome-mediated degradation (FIG. 20e)
in vitro kinase assay (32P autoradiography) [3]: LMTK3 directly phosphorylates ... FoxO3a

— patent publication US20160356775
